Assay results as given in patent publication US20250189530A1 (STCUBE, published 2025).

Assays:
[1] = target: TRIM variant expressed by HEK293T cells; assay: western blot, relative to WT
[2] = target: peptide 4 WT expressed by HEK293T cells (human); assay: western blot, relative to WT
[3] = target: peptide 4 variant A371G expressed by HEK293T cells (human); assay: western blot, relative to WT
[4] = target: peptide 4 variant C375A expressed by HEK293T cells (human); assay: western blot, relative to WT
[5] = target: peptide 4 variant D366A expressed by HEK293T cells (human); assay: western blot, relative to WT
[6] = target: peptide 4 variant D369A expressed by HEK293T cells (human); assay: western blot, relative to WT
[7] = target: peptide 4 variant E361A expressed by HEK293T cells (human); assay: western blot, relative to WT
[8] = target: peptide 4 variant E363A expressed by HEK293T cells (human); assay: western blot, relative to WT
[9] = target: peptide 4 variant G365A expressed by HEK293T cells (human); assay: western blot, relative to WT
[10] = target: peptide 4 variant G373A expressed by HEK293T cells (human); assay: western blot, relative to WT
[11] = target: peptide 4 variant I372A expressed by HEK293T cells (human); assay: western blot, relative to WT
[12] = target: peptide 4 variant R367A expressed by HEK293T cells (human); assay: western blot, relative to WT
[13] = target: peptide 4 variant T368A expressed by HEK293T cells (human); assay: western blot, relative to WT
[14] = target: peptide 4 variant V362A expressed by HEK293T cells (human); assay: western blot, relative to WT
[15] = target: peptide 4 variant V364A expressed by HEK293T cells (human); assay: western blot, relative to WT
[16] = target: peptide 4 variant V374A expressed by HEK293T cells (human); assay: western blot, relative to WT
[17] = target: peptide 4 variant W370A expressed by HEK293T cells (human); assay: western blot, relative to WT
BTN1A1 Peptide 4 [18] = target: T1, BTN1A1 Peptide 4 (human); assay: ELISA, 10X dilution
T1 construct: also called BTN1A1-pep4- WT; Pep4
T1 peptide: EVEVGDRTDWAIGVC

hBTN1A1 ICD = target: T2, hBTN1A1 ICD (human, UniProt Q13410 270-526); assay: ELISA, 10X dilution
T2 sequence: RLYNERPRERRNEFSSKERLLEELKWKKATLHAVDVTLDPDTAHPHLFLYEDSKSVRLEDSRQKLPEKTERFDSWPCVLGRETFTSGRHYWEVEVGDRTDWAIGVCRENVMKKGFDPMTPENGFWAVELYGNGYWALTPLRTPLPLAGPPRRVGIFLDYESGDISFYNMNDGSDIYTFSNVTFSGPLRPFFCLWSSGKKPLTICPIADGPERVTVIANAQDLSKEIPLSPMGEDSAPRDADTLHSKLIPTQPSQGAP

[19] = target: T3, BTN1A1 peptide 4 Mutant 8 (T368A) (human); assay: kinetics of peptide on STC43H11-1, separate assay, method not named
T3 construct: The entry already carries the mutation; also called BTN1A1-pep4- Mutant 8
T3 peptide: EVEVGDRADWAIGVC

[20] = target: T4, BTN1A1 peptide 4 Mutant 9 (D369A) (human); assay: as above
T4 construct: The entry already carries the mutation; also called BTN1A1-pep4- Mutant 9
T4 peptide: EVEVGDRTAWAIGVC

[21] = target: T5, BTN1A1 peptide 4 Mutant 10 (W370A) (human); assay: as above
T5 construct: The entry already carries the mutation; also called BTN1A1-pep4- Mutant 10; mutant peptide #10
T5 peptide: EVEVGDRTDAAIGVC

[22] = target: T6, BTN1A1 peptide 4 Mutant 11 (A371G) (human); assay: as above
T6 construct: The entry already carries the mutation; also called BTN1A1-pep4- Mutant 11
T6 peptide: EVEVGDRTDWGIGVC

[23] = target: T7, BTN1A1 peptide 4 Mutant 12 (I372A) (human); assay: as above
T7 construct: The entry already carries the mutation; also called Mutant 12 (1372A); BTN1A1-pep4- Mutant 12
T7 peptide: EVEVGDRTDWAAGVC

TRIM11 peptide = target: T8, TRIM11 peptide; assay: as above
T8 peptide: EVEVGDRTSWALGVC

BTN1A1 Peptide 4 [24] = target: T1, BTN1A1 Peptide 4; assay: as above
[25] = target: T9, BTN1A1 peptide 4 Mutant 5 (G365A) (human); assay: as above
T9 construct: The entry already carries the mutation; also called BTN1A1-pep4- Mutant 5
T9 peptide: EVEVADRTDWAIGVC

[26] = target: T10, BTN1A1 peptide 4 Mutant 6 (D366A) (human); assay: as above
T10 construct: The entry already carries the mutation; also called BTN1A1-pep4- Mutant 6; mutant peptide #6
T10 peptide: EVEVGARTDWAIGVC

[27] = target: T11, BTN1A1 peptide 4 Mutant 7 (R367A) (human); assay: as above
T11 construct: The entry already carries the mutation; also called BTN1A1-pep4- Mutant 7
T11 peptide: EVEVGDATDWAIGVC

% binding Rel. Quant. [1]: -0.213%
% binding Rel. Quant. [2]: 100%
% binding Rel. Quant. [3]: 9.41%
% binding Rel. Quant. [4]: 277%
% binding Rel. Quant. [5]: -8.55%
% binding Rel. Quant. [6]: 0.178%
% binding Rel. Quant. [7]: 48.3%
% binding Rel. Quant. [8]: 67.6%
% binding Rel. Quant. [9]: 86.8%
% binding Rel. Quant. [10]: 2.25%
% binding Rel. Quant. [11]: 0.127%
% binding Rel. Quant. [12]: 50.1%
% binding Rel. Quant. [13]: 10.4%
% binding Rel. Quant. [14]: 247%
% binding Rel. Quant. [15]: 26.8%
% binding Rel. Quant. [16]: 49.6%
% binding Rel. Quant. [17]: 8.25%
ELISA signal (BTN1A1 Peptide 4 [18]): 2.83
ELISA signal (hBTN1A1 ICD): 2.96
Kd [19]: 1.77 nM
koff [19]: 0.000822 s⁻¹
kon [19]: 464000 M⁻¹ s⁻¹
Kd [20]: 39.1 nM
koff [20]: 0.0101 s⁻¹
kon [20]: 258000 M⁻¹ s⁻¹
Kd [21]: 4.95 nM
koff [21]: 0.00106 s⁻¹
kon [21]: 215000 M⁻¹ s⁻¹
Kd [22]: 1.39 nM
koff [22]: 0.000425 s⁻¹
kon [22]: 306000 M⁻¹ s⁻¹
Kd [23]: 10.6 nM
koff [23]: 0.000778 s⁻¹
kon [23]: 73600 M⁻¹ s⁻¹
Kd (TRIM11 peptide): 621 nM
koff (TRIM11 peptide): 0.1 s⁻¹
kon (TRIM11 peptide): 162000 M⁻¹ s⁻¹
Kd (BTN1A1 Peptide 4 [24]): 0.0844 nM
koff (BTN1A1 Peptide 4 [24]): 1.62e-05 s⁻¹
kon (BTN1A1 Peptide 4 [24]): 192000 M⁻¹ s⁻¹
Kd [25]: 1.72 nM
koff [25]: 0.000146 s⁻¹
kon [25]: 84800 M⁻¹ s⁻¹
Kd [26]: 13.5 nM
koff [26]: 0.00082 s⁻¹
kon [26]: 60900 M⁻¹ s⁻¹
Kd [27]: 0.339 nM
koff [27]: 0.000153 s⁻¹
kon [27]: 453000 M⁻¹ s⁻¹
B1: STC43H11-1 (antibody, V domains shown)
VH: QSLEESGGRLVTPGGSLTLTCTVSGIDLSSYAMGWVRQAPGEGLEWIGSIGTGGGTGYASWAKGRFTISKTSTTVDLKMTSLTASDTATYFCATSNLWGPGTLVTVSS
VL: QVLTQTASPVSAAVGGTVTINCQASQSVYNNNRCSWFQQKPGQPPKRLIYHTSTLDSGVPSRFKGSGSGTQFTLTISDVQCDDAATYYCLGNYDCSRADCAAFGGGTEVVVK
notes: From immunized New Zealand rabbits; IgG heavy chain and Kappa light chain; also called clone #43H11; Clone 43H11
